According to US20240270866A1 (Alector, published 2024):
Substitutions are numbered along the chain they refer to.

T1: Mouse SIRPA D1 Fc (mouse, UniProt P97797 32-150, limits assumed)
T1 sequence: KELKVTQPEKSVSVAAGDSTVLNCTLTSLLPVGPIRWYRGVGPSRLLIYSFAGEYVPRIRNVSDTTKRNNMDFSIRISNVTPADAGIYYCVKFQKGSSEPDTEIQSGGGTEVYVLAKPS

T2: mouse SIRPA overexpressed on CHO cells (mouse, UniProt P97797 32-513)
T2 construct: also called CHO-muSIRPA
T2 sequence: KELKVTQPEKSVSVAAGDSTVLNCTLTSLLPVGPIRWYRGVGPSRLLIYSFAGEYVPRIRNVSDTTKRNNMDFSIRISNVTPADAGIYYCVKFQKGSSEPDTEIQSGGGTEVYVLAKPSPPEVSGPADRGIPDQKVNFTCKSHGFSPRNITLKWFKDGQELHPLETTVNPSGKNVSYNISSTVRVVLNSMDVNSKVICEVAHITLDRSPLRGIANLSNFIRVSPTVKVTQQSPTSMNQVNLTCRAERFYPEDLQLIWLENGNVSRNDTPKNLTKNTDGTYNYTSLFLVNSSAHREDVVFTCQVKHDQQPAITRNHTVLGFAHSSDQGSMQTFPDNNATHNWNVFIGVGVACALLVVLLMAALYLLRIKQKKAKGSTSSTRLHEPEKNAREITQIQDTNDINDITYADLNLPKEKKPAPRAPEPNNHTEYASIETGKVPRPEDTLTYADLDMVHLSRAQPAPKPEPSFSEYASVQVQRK

B1: SA-59 (antibody, V domains shown)
VH: QVQLQESGPGLVKPSETLSLTCTVSGGSISSYYWSWIRQPPGKGLEWIGSIYYSGSTNYNPSLKSRVTISVDTSKNQFSLKLSSVTAADTAVYYCARSGGSYSYLDVWGQGTMVTVSS
VL: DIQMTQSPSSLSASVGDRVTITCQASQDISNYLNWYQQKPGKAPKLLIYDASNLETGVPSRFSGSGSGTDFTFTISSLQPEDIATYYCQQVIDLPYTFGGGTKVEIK
notes: IgG
B2: SA-47 (antibody, V domains shown)
VH: QVQLVQSGAEVKKPGASVKVSCKASGYTFTSYYMHWVRQAPGQGLEWMGIINPSGGSTSYAQKFQGRVTMTRDTSTSTVYMELSSLRSEDTAVYYCAREVGVSGWEITYGMDVWGQGTTVTVSS
VL: DIQMTQSPSSVSASVGDRVTITCRASQGISSWLAWYQQKPGKAPKLLIYAASSLQSGVPSRFSGSGSGTDFTLTISSLQPEDFATYYCQQISSYPITFGGGTKVEIK
notes: IgG
B3: SA-2 (antibody, V domains shown)
VH: QVQLVESGGGVVQPGRSLRLSCAASGFTFSSYGMHWVRQAPGKGLEWVAVISYDGSNKYYADSVKGRFTISRDNSKNTLYLQMNSLRAEDTAVYYCAKDLGGGSGGYATSDYYYGMDVWGQGTTVTVSS
VL: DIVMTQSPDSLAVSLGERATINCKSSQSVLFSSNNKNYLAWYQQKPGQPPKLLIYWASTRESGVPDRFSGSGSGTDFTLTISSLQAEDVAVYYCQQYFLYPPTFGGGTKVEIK
notes: IgG
B4: SA-1 (antibody, V domains shown)
VH: EVQLVESGGGLVQPGRSLRLSCAASGFTFGDYAMHWVRQAPGKGLEWVSGISWNSGSIGYADSVKGRFTISRDNAKNSLYLQMNSLRAEDTALYYCAKDAPYVGLDLWGRGTLVTVSS
VL: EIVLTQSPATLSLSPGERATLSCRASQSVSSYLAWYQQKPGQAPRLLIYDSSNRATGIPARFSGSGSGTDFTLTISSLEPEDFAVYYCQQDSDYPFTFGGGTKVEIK
notes: IgG
B5: SA-58 (antibody, V domains shown)
VH: QLQLQESGPGLVKPSETLSLTCTVSGGSISSSSYAWGWIRQPPGKGLEWIGSIYYSGSTYYNPSLKSRVTISVDTSKNQFSLKLSSVTAADTAVYYCARLPMGCGSGMDVWGQGTTVTVSS
VL: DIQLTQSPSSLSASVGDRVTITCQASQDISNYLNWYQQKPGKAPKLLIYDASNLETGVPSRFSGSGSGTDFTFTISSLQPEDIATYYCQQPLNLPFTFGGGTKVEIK
notes: IgG
B6: SA-60 (antibody, V domains shown)
VH: EVQLVESGGGLVQPGGSLRLSCAASGFTFSSYSMNWVRQAPGKGLEWVSYISSSSSTIYYADSVKGRFTISRDNAKNSLYLQMNSLRAEDTAVYYCARTHKHFDYGMDVWGQGTTVTVSS
VL: EIVLTQSPATLSLSPGERATLSCRASQSVSSYLAWYQQKPGQAPRLLIYDSSNRATGIPARFSGSGSGTDFTLTISSLEPEDFAVYYCQDRSNLPWTFGGGTKVEIK
notes: IgG
B7: SA-3 (antibody, V domains shown)
VH: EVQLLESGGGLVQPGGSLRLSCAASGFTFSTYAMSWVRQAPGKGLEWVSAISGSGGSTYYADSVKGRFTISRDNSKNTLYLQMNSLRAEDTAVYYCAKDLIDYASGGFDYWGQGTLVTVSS
VL: B6 VL with S51A, D90Q, R91H, S92D, N93F, L94W, W96P
notes: IgG
B8: SA-4 (antibody, V domains shown)
VH: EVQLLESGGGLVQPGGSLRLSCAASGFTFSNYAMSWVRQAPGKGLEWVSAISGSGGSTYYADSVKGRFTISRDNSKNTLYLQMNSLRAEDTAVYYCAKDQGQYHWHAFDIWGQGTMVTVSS
VL: B6 VL with S51A, D90Q, R91D, L94F, W96F
notes: IgG
B9: SA-62 (antibody, V domains shown)
VH: B6 VH
VL: DIQMTQSPSSLSASVGDRVTITCQASQDIANYLNWYQQKPGKAPKLLIYDASNLETGVPSRFSGSGSGTDFTFTISSLQPEDIATYYCQQYVNYWTFGGGTKVEIK
notes: IgG
B10: SA-56-86 Fab (Fab, V domains shown)
VH: QVQLVESGGGVVQPGGSLRLSCAASGFTFSYYGMSWVRQAPGKGLEWVASIWVDGSSKYYADSVKGRFTISRDNSKNTLYLQMNSLRAEDTAVYYCARGVETYSGPNWFDPWGQGTLVTVSS
VL: B2 VL with I91A, S92I, S93Y, Y94F
notes: papain Fab
B11: SA-19-73 Fab (Fab, V domains shown)
VH: QVQLVESGGGLVQPGGSLRLSCAASGFTFSSYAMHWVRQAPGKGLEWVAGILYDGSNKYYADSVKGRFTISRDNSKNTLYLQMNSLRAEDTAVYYCANSDTKYTLGFAFDIWGQGTMVTVSS
VL: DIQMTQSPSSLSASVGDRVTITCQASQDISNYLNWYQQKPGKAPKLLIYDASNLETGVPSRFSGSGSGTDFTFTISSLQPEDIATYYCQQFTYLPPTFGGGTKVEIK
notes: papain Fab
B12: SA-19-75 Fab (Fab, V domains shown)
VH: B11 VH with L11V, G16R, A33G, G50V, L52A, Y59L, N98L, S99M, D100R
VL: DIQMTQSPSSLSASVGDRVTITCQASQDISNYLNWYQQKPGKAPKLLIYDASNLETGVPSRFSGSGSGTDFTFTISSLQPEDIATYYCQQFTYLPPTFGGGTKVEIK
notes: papain Fab
B13: SA-19-74 Fab (Fab, V domains shown)
VH: B11 VH with L11V, G16R, T28A, N98R, S99H, D100S, T101Q
VL: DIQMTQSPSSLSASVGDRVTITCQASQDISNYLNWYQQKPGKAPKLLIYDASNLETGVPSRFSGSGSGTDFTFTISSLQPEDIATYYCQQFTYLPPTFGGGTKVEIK
notes: papain Fab
B14: SA-19-81 Fab (Fab, V domains shown)
VH: B11 VH with L11V, G16R, F29S, A33G, G50V, L52A, Y59L, N98R, S99T, D100P
VL: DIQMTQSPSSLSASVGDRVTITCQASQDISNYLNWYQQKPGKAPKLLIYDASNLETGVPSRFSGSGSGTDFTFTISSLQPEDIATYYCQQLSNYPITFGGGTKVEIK
notes: papain Fab
B15: SA-19-80 Fab (Fab, V domains shown)
VH: EVQLLESGGGVVQPGRSLRLSCAASGFTFSSYGMHWVRQAPGKGLEWVAGILYDGSNKYYADSVKGRFTISRDNSKNTLYLQMDGLRAEDTAVYYCARHSVKYTLGFAFDIWGQGTMVTVSS
VL: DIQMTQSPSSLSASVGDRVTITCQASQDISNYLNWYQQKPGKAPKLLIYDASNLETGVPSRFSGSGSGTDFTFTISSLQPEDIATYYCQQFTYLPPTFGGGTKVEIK
notes: papain Fab
B16: SA-19-84 Fab (Fab, V domains shown)
VH: B15 VH with E1Q, L5V, G50V, L52A, Y59L, D84N, G85S, H99T, S100Q, V101L
VL: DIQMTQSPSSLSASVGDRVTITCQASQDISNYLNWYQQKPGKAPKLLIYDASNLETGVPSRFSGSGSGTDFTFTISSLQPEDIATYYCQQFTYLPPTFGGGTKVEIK
notes: papain Fab
B17: SA-19-82 Fab (Fab, V domains shown)
VH: B11 VH with L11V, G16R, N98R, S99H, D100V, T101L
VL: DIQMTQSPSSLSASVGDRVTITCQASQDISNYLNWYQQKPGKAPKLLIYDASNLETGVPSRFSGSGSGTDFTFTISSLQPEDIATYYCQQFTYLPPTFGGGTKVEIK
notes: papain Fab
B18: SA-19-83 Fab (Fab, V domains shown)
VH: B11 VH with L11V, G16R, S30D, A33L, G50S, L52I, N98S, S99V, D100R
VL: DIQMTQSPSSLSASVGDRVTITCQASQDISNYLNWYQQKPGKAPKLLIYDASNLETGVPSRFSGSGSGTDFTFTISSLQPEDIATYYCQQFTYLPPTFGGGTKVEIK
notes: papain Fab
B19: SA-19-78 Fab (Fab, V domains shown)
VH: B11 VH with L11V, G16R, A33G, G50V, L52A, Y59L, N84D, N98T
VL: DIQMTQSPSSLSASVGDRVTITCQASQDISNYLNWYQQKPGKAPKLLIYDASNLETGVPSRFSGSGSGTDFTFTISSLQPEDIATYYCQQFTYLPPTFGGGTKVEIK
notes: papain Fab
B20: SA-19-77 Fab (Fab, V domains shown)
VH: B11 VH with L11V, G16R, A33G, H35A, G50Q, K58E, N98R, S99D, D100L
VL: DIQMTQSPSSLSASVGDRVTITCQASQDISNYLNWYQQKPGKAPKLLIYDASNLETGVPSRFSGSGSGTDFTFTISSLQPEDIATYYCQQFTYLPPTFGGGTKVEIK
notes: papain Fab
B21: SA-19-79 Fab (Fab, V domains shown)
VH: B11 VH with L11V, G16R, A33G, G50V, L52A, Y59I, N98T, S99T
VL: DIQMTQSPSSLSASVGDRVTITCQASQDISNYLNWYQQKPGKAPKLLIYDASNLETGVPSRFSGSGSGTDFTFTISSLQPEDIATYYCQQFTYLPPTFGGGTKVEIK
notes: papain Fab
B22: SA-19-76 Fab (Fab, V domains shown)
VH: QVQLVESGGGVVQPGRSLRLSCAASGFTFSSYGMHWVRQAPGKGLEWVAVIAYDGSNKLYADSVKGRFTISRDNAKNSLYLQMNSPRAEDTAVYYCATMRTKYTLGFAFDIWGQGTMVTVSS
VL: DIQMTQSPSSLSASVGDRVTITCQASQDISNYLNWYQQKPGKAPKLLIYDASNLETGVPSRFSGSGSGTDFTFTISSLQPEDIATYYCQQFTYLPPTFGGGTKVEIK
notes: papain Fab
B23: SA-19-72 Fab (Fab, V domains shown)
VH: B11 VH with L11V, G16R, R19G, N98R, D100N, T101E
VL: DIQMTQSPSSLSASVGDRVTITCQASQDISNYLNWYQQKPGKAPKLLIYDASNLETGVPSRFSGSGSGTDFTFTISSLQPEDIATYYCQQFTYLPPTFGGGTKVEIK
notes: papain Fab

Each binder was assayed against Human SIRPb D1 Fc (human, UniProt O00241 30-148, limits assumed) (assay: ForteBio IgG avid;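 note: antibody IgG captured on AHQ biosensors, then 100 nM Fc-fused SIRP antigen applied for 3 min, followed by 3 min buffer dissociation, kinetics fitted to a 1:1 model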).
Human SIRPb D1 Fc, sequence (O00241 30-148 limits assumed): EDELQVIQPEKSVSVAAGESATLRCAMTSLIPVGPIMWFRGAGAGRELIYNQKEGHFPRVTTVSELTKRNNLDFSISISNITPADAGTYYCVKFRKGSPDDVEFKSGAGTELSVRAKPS

binding result	Binder
no binding (tested: 100 nM)	B1
no binding (tested: 100 nM)	B2
no binding (tested: 100 nM)	B3
no binding (tested: 100 nM)	B4
no binding (tested: 100 nM)	B5
no binding (tested: 100 nM)	B6
no binding (tested: 100 nM)	B7
no binding (tested: 100 nM)	B8
no binding (tested: 100 nM)	B9

Each binder was assayed against T1, Mouse SIRPA D1 Fc (assay: ForteBio IgG avid;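 note: antibody IgG captured on AHQ biosensors, then 100 nM Fc-fused SIRP antigen applied for 3 min, followed by 3 min buffer dissociation, kinetics fitted to a 1:1 model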).

binding result	Binder
no binding (tested: 100 nM)	B1
no binding (tested: 100 nM)	B2
no binding (tested: 100 nM)	B3
no binding (tested: 100 nM)	B4
no binding (tested: 100 nM)	B5
no binding (tested: 100 nM)	B6
no binding (tested: 100 nM)	B7
no binding (tested: 100 nM)	B8
no binding (tested: 100 nM)	B9

The binders below were run against T3, Human SIRPA D1 Fc (human, UniProt P78324 32-137) (assay: ForteBio IgG avid;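 note: antibody IgG captured on AHQ biosensors, then 100 nM Fc-fused SIRP antigen applied for 3 min, followed by 3 min buffer dissociation, kinetics fitted to a 1:1 model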).
T3 construct: not shown: human IgG1 Fc

Kd	Binder
23.6 nM	B1
15.4 nM	B2
2.44 nM	B3
20 nM	B4
4.31 nM	B5
22.2 nM	B6
21.4 nM	B7
30.2 nM	B8
16.5 nM	B9

What follows are binders tested against T4, biotinylated human SIRPA (monomer) (human, UniProt P78324 31-373, limits assumed, biotinylated) (assay: MSD-SET, Fab, equilibrium;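 note: solution equilibrium titration, free antigen captured on antibody-coated MSD plates and detected by electrochemiluminescence with labeled streptavidin, percent free antigen versus titrated antibody fit to quadratic model for KD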).
T4 construct: monomer made by IdeS cleavage of a SIRPA Fc fusion; also called recombinant human SIRPA
Description: Antibodies (20 nM in PBS) were coated onto standard bind MSD-ECL plates overnight at 4° C. or at room temperature for 30 min. Plates were then blocked with 1% BSA for 30 min with shaking at 700 rpm, followed by three washes with wash buffer (PBSF+0.05% Tween 20). SET samples were applied and incubated on the plates for 150s with shaking at 700 rpm followed by one wash. Antigen captured on a plate was detected with 250 ng/ml sulfotag-labeled streptavidin in PBSF by incubation on the plate for 3 min. The plates were washed three times with wash buffer and then read on the MSD Sector Imager 2400 instrument using 1× Read Buffer T with surfactant. The percent free antigen was plotted as a function of titrated antibody in Prism and fit to a quadratic equation to extract the KD. To improve throughput, liquid handling robots were used throughout MSD-SET experiments, including SET sample preparation.

Kd	Binder
0.18 nM	B10
0.18 nM	B11
0.42 nM	B12
1.1 nM	B13
0.37 nM	B14
0.22 nM	B15
0.64 nM	B16
0.27 nM	B17
0.31 nM	B18
0.084 nM	B19
1.2 nM	B20
0.14 nM	B21
0.42 nM	B22
0.88 nM	B23

These binders were tested against T5, human SIRPA Fc fusion antigen (human, UniProt P78324 31-373) (assay: ForteBio Fab monovalent).
T5 construct: heterologous signal peptide; not shown: human IgG1 Fc

Kd	Binder
1.02 nM	B10
1.62 nM	B11
1.67 nM	B12
3.16 nM	B13
1.53 nM	B14
2.26 nM	B15
2.02 nM	B16
1.44 nM	B17
1.44 nM	B18
1.53 nM	B19
3.61 nM	B20
0.689 nM	B21
1.64 nM	B22
4.95 nM	B23

The binders below were run against T2, mouse SIRPA overexpressed on CHO cells (assay: flow, CHO-muSIRPA;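 for relative MFI: antibody binding measured by flow cytometry: cells stained with 1 ug/ml test antibody for 1 h on ice, detected with PE-labelled secondary antibody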).

relative MFI	Binder
0.53 fold over background	B1
0.479 fold over background	B2
0.527 fold over background	B3
0.545 fold over background	B4
0.738 fold over background	B5
0.539 fold over background	B6
0.518 fold over background	B7
0.491 fold over background	B8
0.557 fold over background	B9

Molecular target: T2, mouse SIRPA overexpressed on CHO cells
Test: flow, CHO-muSIRPA
Remark: another data set of the same source

binding result	Binder
no binding (tested: 1 ug/ml)	B1
no binding (tested: 1 ug/ml)	B2
no binding (tested: 1 ug/ml)	B3
no binding (tested: 1 ug/ml)	B4
no binding (tested: 1 ug/ml)	B5
no binding (tested: 1 ug/ml)	B6
no binding (tested: 1 ug/ml)	B7
no binding (tested: 1 ug/ml)	B8
no binding (tested: 1 ug/ml)	B9

These binders were tested against T6, human SIRPA overexpressed on CHO cells (human, UniProt P78324 31-504) (assay: flow, CHO-huSIRPA;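 note: Anti-SIRPA antibodies applied at 1 µg/mL for 1 h on ice, binding read by flow cytometry using a PE-labelled secondary antibody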).
T6 construct: also called CHO-huSIRPA

relative MFI	Binder
0.63 fold over background	B1
11.3 fold over background	B2
98.3 fold over background	B3
1.47 fold over background	B4
50.8 fold over background	B5
4.85 fold over background	B6
0.595 fold over background	B7
0.87 fold over background	B8
7.09 fold over background	B9
